Laboratory results taken from article PMC3667199 (Biochemistry, 2011).

T1: PTP10D (Drosophila melanogaster, UniProt P35992)
T1 sequence (P35992 1226-1533): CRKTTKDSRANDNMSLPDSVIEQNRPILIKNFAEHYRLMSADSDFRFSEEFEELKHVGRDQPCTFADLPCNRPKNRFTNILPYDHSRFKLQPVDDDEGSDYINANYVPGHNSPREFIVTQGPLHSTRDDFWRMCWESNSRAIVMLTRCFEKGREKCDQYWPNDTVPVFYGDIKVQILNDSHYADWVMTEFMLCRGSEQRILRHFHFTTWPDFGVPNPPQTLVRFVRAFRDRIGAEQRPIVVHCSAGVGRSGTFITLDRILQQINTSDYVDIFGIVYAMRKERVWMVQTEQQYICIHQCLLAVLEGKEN

B1: PTP10D (Drosophila melanogaster) (protein)
chain: T1 sequence (P35992 1226-1533)

Columns and labels:
[1] = target: T1, PTP10D; experiment: crystal structure; type: biochemical
[2] = substrate: O=[N+]([O-])c1ccc(OP(=O)(O)O)cc1; experiment: purified protein

Molecule	Ki [1]	Km [2]	Vmax [2]	kcat [2]	kcat/Km [2]
[O]=[V]([OH])([OH])[OH] [sodium vanadate]	1530 ± 140 nM	–	–	–	–
B1	–	5.3128 ± 0.05842 mM	13.7 µmol/min/mg	8.24 ± 0.89 s⁻¹	1550 ± 160 M⁻¹ s⁻¹
